Measurements taken from the supplement of paper PMC10567573.
± gives the standard deviation.

Assay: protein stability index of a GFP-peptide fusion (GPS, HEK-293T) (PSI 1-6); higher = more stable
[1] = treatment: DMSO, c terminus: a fixed tail appended
[2] = treatment: MLN4924 1 uM, 8 h, c terminus: a fixed tail appended
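Further: 24-mer peptide tiles fused after GFP, lentivirally expressed, FACS-sorted into six equal bins by GFP/DsRed ratio, decoded by Illumina sequencing, PSI is the read-weighted mean bin number.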

Sequence	protein stability index [1]	protein stability index [2]	protein stability index (treatment: DMSO, c terminus: native)	protein stability index (treatment: MLN4924 1 uM, 8 h, c terminus: native)
PGVHRRYSALREESAKDWETSPLP [PPFIA4]	4.04 ± 0.31	4.43 ± 0.27		
CIFDKFECVWNGSDSVIMTGSYNN [PPP2R2B]	2.27 ± 0.34	2.21 ± 0.14		
SYSSCGDFHYCDREHVCRKDQRNP [RBMY1A1]	4.06 ± 0.41	4.09 ± 0.1		
QLERPLPLTSVCYPQDLPRPLRSR [TRAF3IP2]	4.05 ± 0.21	4.1 ± 0.24		
PPSRAPTAAPPPPPPSRPSVAVPP [WASL]	4.77 ± 0.21	4.86 ± 0.21		
EALAATWEQPWASEVFGPERMPPS [PXN]	3.33 ± 0.27	3.5 ± 0.47		
GGCYFGPDVTQQLLQKYNMQFLIR [PPEF2]	1.92 ± 0.29	2.2 ± 0.37		
SDLNVVASFDRRGEYIYTGNAKGK [RBBP5]	4.32 ± 0.6	4.4 ± 0.26		
ELPNIKREISETEAKALLKERQKK [TFE3]	3.26 ± 0.7	4.19 ± 0.57		
TGRFSFTLPYPVKIKVRFSFFLQI [HACD3]	3.14 ± 0.37	2.92 ± 0.17		
DEGGITKQPPVTQSKTASDKSPST [FBF1]	5.44 ± 0.21	5.56 ± 0.19		
LVRTLYKVQNECPGITRVYSIGRS [CPN1]	2.27 ± 0.55	2.11 ± 0.14		
QLRNCLRILMGELSNHHDHHDEFC [BEX3]	2.28 ± 0.41	2.21 ± 0.12		
FVDSIRRQFEFSVDSFQIILDSLL [TENT5C]	2.33 ± 0.37	2.31 ± 0.14		
PLTSHILRAFVNSQIQGHKEMSKV [SNX8]	2.3 ± 0.36	2.21 ± 0.3		
RMLQREGCFRSQGASLRLAVEDGL [M1AP]	3.1 ± 0.22	2.94 ± 0.14		
GSGQRVPALEEAPDSHQKRPQHSH [ELOA2]	5.26 ± 0.17	5.29 ± 0.33		
YSFYLFHPLAYGMVGPLAQDPQSP [POMT2]	2.45 ± 0.7	2.67 ± 0.43		
IEENITSAAPSNDQDGEYCPEVKL [SRPK2]	5.5 ± 0.17	5.49 ± 0.28		
RYAVVLNATWLVNSAAHLFGYRPY [SCD]	2.9 ± 0.65	3.05 ± 0.47		
VTEDLRLKDWEHSIALRNISLAKG [SCARA5]	3.5 ± 0.26	3.59 ± 0.39		
EPEEEILGSDDEEQEDPADYCKGG [SRPK2]	5.54 ± 0.29	5.55 ± 0.24		
MDDPKGDFITLYQMASQSSASHYK [M1AP]	3.27 ± 0.25	3.31 ± 0.22		

Sequence	protein stability index [1]	protein stability index [2]	protein stability index (treatment: DMSO, c terminus: native)	protein stability index (treatment: MLN4924 1 uM, 8 h, c terminus: native)
GLTFQGLLPLTELSVCPLEGSREH [PLEKHN1]	3.57 ± 0.35	3.62 ± 0.35		
LYQLEGNNQITCRNGQWSEPPKCL [CFHR2]	3.08 ± 0.29	2.98 ± 0.18		
QGTTVPAHRAILVARCEVMAAMFN [RHOBTB3]	2.1 ± 0.18	2.17 ± 0.097		
CPLLLGSVMAIERCIGVTKPIFHS [PTGFR]	2.78 ± 0.87	2.77 ± 0.68		
TKLEAEIVTLRHVLAAKERRCGEL [TPD52L3]	2.89 ± 0.22	2.78 ± 0.35		
MEQVHRGIKGLVRDSHGKGIPNAI [CPXM2]	3.68 ± 0.56	4.35 ± 0.17		
EDEDKSEPEQTGADAAEDEEVDVT [RBBP5]	5.66 ± 0.28	5.73 ± 0.31		
AQLELYQLQVESNSSQLLLRRHAG [SCARA5]	2.71 ± 0.26	2.9 ± 0.25		
KKSSRNIFSIVFVFFVCFVPYHIA [P2RY14]	3.31 ± 1	3.53 ± 0.15		
SGGGGGGGGGGGGGKSGGIVISPF [CCDC6]	3.53 ± 0.41	3.37 ± 0.23		
KGLLKKGACYGDDACFVARHRSAD [PPTC7]	4.16 ± 0.56	4.05 ± 0.25		
GEQPQFWSKTQVLDWISYQVEKNK [ELF3]	3.02 ± 0.13	3.29 ± 0.33		
MSEIRFTNLTWDQVITLDQVLDEV [TENT5D]	2.33 ± 0.33	2.31 ± 0.27		
VTSQATLLTITKAHSNAISNCCFT [WDR88]	2.3 ± 0.55	2.18 ± 0.28		
ERCNQLLRALKLVITALKCHKYDR [ZER1]	2.56 ± 0.47	2.71 ± 0.47		
SAKPASLRLLQHTPSARRNYRIAG [C6orf223]	3.43 ± 0.24	3.75 ± 0.22		
RLVQLLVRAHQDTQRRTSMGGTQQ [CTNNB1]	2.23 ± 0.25	2.54 ± 0.54		
TKGEKIMLAIITKMTLTQVSTWFA [IRX6]	2.97 ± 0.5	2.95 ± 0.68		
MLLGVPRLRQLKVRNDSCVVHEDF [PKD2L1]	2.46 ± 0.33	2.52 ± 0.32		
RKPDPMCVFTYVQSLYNHLRRFE [SMTNL2]			2.74 ± 0.62	2.72 ± 0.36
TPLHLDLTQLHRLSLESSPDAPDH [PLEKHN1]	4.59 ± 0.29	4.63 ± 0.23		
NSTPLRAACFDGRLDIVKYLVENN [FEM1B]	2.84 ± 0.19	3.01 ± 0.21		
